From the supplement of paper PMC9233669
Variants at the floor of the assay were thinned out.

Legend:
biotinyl-Ile-oxazolone = assay: self-aminoacylation, catalytic enhancement (BIO) (fold over background); higher = more active; k-Seq, kA / k0A0; sequences stand for … in GGGAAUGGAUCCACAUCUACGAAUUC…UUCACUGCAGACUUGACGAAGCUG
In short: (§1)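 Each biotinyl-aminoacyl-oxazolone, at 2–1250 μM, was incubated with mutagenized RNA pools (0.43 μM) carrying a 21-nt variable region. The 50 μL reactions contained HEPES/NaCl/KCl/MgCl2/CaCl2 buffer with 5% acetonitrile at pH 6.9–7.0 and ran for 90 minutes at room temperature. After streptavidin capture, RNA was measured by qPCR in triplicate and by Illumina sequencing, and catalytic enhancement was calculated as median kA over the uncatalyzed rate from a pseudo-first-order fit of per-sequence fraction reacted.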

biotinyl-Met-oxazolone = assay: self-aminoacylation, catalytic enhancement (BMO) (fold over background); higher = more active; k-Seq, kA / k0A0; sequences stand for … in GGGAAUGGAUCCACAUCUACGAAUUC…UUCACUGCAGACUUGACGAAGCUG
In short: as §1

biotinyl-Phe-oxazolone = assay: self-aminoacylation, catalytic enhancement (BFO) (fold over background); higher = more active; k-Seq, kA / k0A0; sequences stand for … in GGGAAUGGAUCCACAUCUACGAAUUC…UUCACUGCAGACUUGACGAAGCUG
In short: as §1

biotinyl-Val-oxazolone = assay: self-aminoacylation, catalytic enhancement (BVO) (fold over background); higher = more active; k-Seq, kA / k0A0; sequences stand for … in GGGAAUGGAUCCACAUCUACGAAUUC…UUCACUGCAGACUUGACGAAGCUG
In short: as §1

biotinyl-Trp-oxazolone = assay: self-aminoacylation, catalytic enhancement (BWO) (fold over background); higher = more active; k-Seq, kA / k0A0; sequences stand for … in GGGAAUGGAUCCACAUCUACGAAUUC…UUCACUGCAGACUUGACGAAGCUG
In short: as §1

biotinyl-Leu-oxazolone = assay: self-aminoacylation, catalytic enhancement (BLO) (fold over background); higher = more active; k-Seq, kA / k0A0; sequences stand for … in GGGAAUGGAUCCACAUCUACGAAUUC…UUCACUGCAGACUUGACGAAGCUG
In short: as §1

| Sequence | self-aminoacylation (biotinyl-Ile-oxazolone) | self-aminoacylation (biotinyl-Met-oxazolone) | self-aminoacylation (biotinyl-Phe-oxazolone) | self-aminoacylation (biotinyl-Val-oxazolone) | self-aminoacylation (biotinyl-Trp-oxazolone) | self-aminoacylation (biotinyl-Leu-oxazolone) |
| --- | --- | --- | --- | --- | --- | --- |
| CUACUUCAAAGAAUGGGUCUG [Fam1A.1 aminoacylation ribozyme variant] | 0.79 | 0.708 | 0.335 | 0.665 | 0.459 | 0.74 |
| CUACUUCAAAUAAACGGUCUG [Fam1A.1 aminoacylation ribozyme variant] | 0.719 | 0.537 | 0.881 | 0.777 | 0.692 | 0.71 |
| CUACUUCAAAUAAGCGGUCUG [Fam1A.1 aminoacylation ribozyme variant] | 0.958 | 0.797 | 0.945 | 0.799 | 0.575 | 0.824 |
| CUACUUCAAAUAAUCGCUCUG [Fam1A.1 aminoacylation ribozyme variant] | 0.6 | 0.562 | 2.37 | 0.637 | 1.23 | 0.583 |
| CUACUUCAAAUAAUCGGGCUG [Fam1A.1 aminoacylation ribozyme variant] | 0.911 | 0.607 | 4.76 | 0.85 | 3.35 | 0.965 |
| CUACUUCAAAUAAUCGGUCAG [Fam1A.1 aminoacylation ribozyme variant] | 0.755 | 0.675 | 6.75 | 0.83 | 3.24 | 0.708 |
| CUACUUCAAAUAAUCGGUGUG [Fam1A.1 aminoacylation ribozyme variant] | 0.826 | 0.983 | 3.23 | 0.826 | 2.4 | 1 |
| CUACUUCAAAUAAUGGGUCUG [Fam1A.1 aminoacylation ribozyme variant] | 0.875 | 0.956 | 0.624 | 0.814 | 0.583 | 1.01 |
| CUACUUCAAAUAAUUGGUCUG [Fam1A.1 aminoacylation ribozyme variant] | 0.844 | 0.953 | 1.19 | 0.802 | 0.637 | 0.869 |
| CUACUUCAAAUACUCGGUCUG [Fam1A.1 aminoacylation ribozyme variant] | 0.832 | 0.972 | 0.622 | 0.84 | 0.71 | 0.807 |
| CUACUUCAACCAAACGGUCUG [Fam1A.1 aminoacylation ribozyme variant] | 0.745 | 0.704 | 0.71 | 0.86 | 0.55 | 0.871 |
| CUACUUCAACCAUUCGGUCUG [Fam1A.1 aminoacylation ribozyme variant] | 1.21 | 1.17 | 0.891 | 1.26 | 1.52 | 1.19 |
| CUACUUCAACCCAUCGGUCUG [Fam1A.1 aminoacylation ribozyme variant] | 0.983 | 0.722 | 0.647 | 0.983 | 0.838 | 0.943 |
| CUACUUCAAGCAACCGGUCUG [Fam1A.1 aminoacylation ribozyme variant] | 0.883 | 0.943 | 1.06 | 0.837 | 0.799 | 0.947 |
| CUACUUCAAGCAAUCAGUCUG [Fam1A.1 aminoacylation ribozyme variant] | 0.772 | 0.615 | 5.21 | 0.786 | 2.25 | 0.698 |
| CUACUUCAAGCAAUCGCUCUG [Fam1A.1 aminoacylation ribozyme variant] | 0.99 | 1.07 | 1.13 | 0.943 | 1.17 | 1.28 |
| CUACUUCAAGCAAUCGGUCAG [Fam1A.1 aminoacylation ribozyme variant] | 0.86 | 1.09 | 2.28 | 0.894 | 1.3 | 0.797 |
| CUACUUCAAGCAAUCGGUCGG [Fam1A.1 aminoacylation ribozyme variant] | 1.53 | 1.08 | 5.87 | 1.25 | 4.8 | 1.69 |
| CUACUUCAAGCAAUCGGUUUG [Fam1A.1 aminoacylation ribozyme variant] | 1.11 | 0.981 | 11.5 | 1.03 | 8.79 | 1.35 |
| CUACUUCAAUUAAUCGGUCUG [Fam1A.1 aminoacylation ribozyme variant] | 1.08 | 1.03 | 18.7 | 0.985 | 13.9 | 1.33 |
| CUACUUCACACAAUCGGUCUG [Fam1A.1 aminoacylation ribozyme variant] | 0.775 | 0.685 | 0.869 | 0.811 | 0.689 | 0.694 |
| CUACUUCACACAAUGGGUCUG [Fam1A.1 aminoacylation ribozyme variant] | 0.865 | 0.826 | 0.647 | 0.754 | 0.589 | 0.775 |
| CUACUUCACACAAUUGGUCUG [Fam1A.1 aminoacylation ribozyme variant] | 0.948 | 1 | 0.431 | 0.739 | 0.828 | 0.729 |
| CUACUUCACACACUCGGUCUG [Fam1A.1 aminoacylation ribozyme variant] | 1.42 | 1.42 | 1.31 | 1.49 | 1.16 | 1.69 |
| CUACUUCACACAGUCGGUCUG [Fam1A.1 aminoacylation ribozyme variant] | 0.65 | 0.619 | 0.389 | 0.731 | 0.682 | 0.682 |
